Data from patent US20210395393A1.
Blank lines part the entries; values can stand above or below the binder they belong to.

Target: TPA mutant tenecteplase (human) (UniProt P00750)
Assay: binding ELISA, plate coated with tenecteplase

TPA mutant tenecteplase (human), sequence (P00750 36-562, change not shown): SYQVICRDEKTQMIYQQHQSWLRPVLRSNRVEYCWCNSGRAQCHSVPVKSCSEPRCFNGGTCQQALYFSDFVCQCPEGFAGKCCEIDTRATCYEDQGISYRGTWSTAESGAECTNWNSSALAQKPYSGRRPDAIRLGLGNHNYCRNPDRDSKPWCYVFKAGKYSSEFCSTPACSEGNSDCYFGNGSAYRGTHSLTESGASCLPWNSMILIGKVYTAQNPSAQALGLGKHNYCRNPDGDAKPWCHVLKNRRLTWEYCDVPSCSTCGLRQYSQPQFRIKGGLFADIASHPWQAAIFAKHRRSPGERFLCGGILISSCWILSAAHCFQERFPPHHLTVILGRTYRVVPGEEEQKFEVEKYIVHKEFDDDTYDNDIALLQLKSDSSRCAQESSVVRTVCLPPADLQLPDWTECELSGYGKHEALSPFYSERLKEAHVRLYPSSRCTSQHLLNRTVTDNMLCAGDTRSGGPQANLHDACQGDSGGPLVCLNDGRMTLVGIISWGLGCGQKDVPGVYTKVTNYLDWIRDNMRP

EC50: 633 pM
B1: TPAi-1 RHP/RKA (antibody, V domains shown)
VH: QVQLVQSGAEVKKPGASVKVSCKASGNTSYWINWVRQATGQGLEWMGRIDPGGGSTGYAQKFQGRVTMTRDTSISTAYMELSSLRSEDTAVYYCASYYYAMAYWGQGTLVTVSS
VL: DVVMTQSPLSLPVTPGEPASISCRSSQSIVHSNGNTYLDWYLQKPGQSPQLLIYKVSNRASGVPDRFSGSGSGTDFTLKISRVEAEDVGVYYCFQGSHVPWTFGGGTKVEIK

EC50: 1310 pM
B2: TPAi-1 RHP/RKA Fab (Fab, V domains shown)
VH: B1 VH
VL: B1 VL
